The Kd is the equilibrium constant for the complex coming apart. A lower Kd goes with tighter binding.

Numbering of substitutions follows the chain as printed. In names and notes the source's numbering stands.

T1: CEACAM1 (Sino Biological) (human, UniProt P13688 35-428, limits assumed)
T1 construct: may be the same as CEACAM1-HIS; also called hCEACAM1; biotinylated soluble CEACAM1
T1 sequence: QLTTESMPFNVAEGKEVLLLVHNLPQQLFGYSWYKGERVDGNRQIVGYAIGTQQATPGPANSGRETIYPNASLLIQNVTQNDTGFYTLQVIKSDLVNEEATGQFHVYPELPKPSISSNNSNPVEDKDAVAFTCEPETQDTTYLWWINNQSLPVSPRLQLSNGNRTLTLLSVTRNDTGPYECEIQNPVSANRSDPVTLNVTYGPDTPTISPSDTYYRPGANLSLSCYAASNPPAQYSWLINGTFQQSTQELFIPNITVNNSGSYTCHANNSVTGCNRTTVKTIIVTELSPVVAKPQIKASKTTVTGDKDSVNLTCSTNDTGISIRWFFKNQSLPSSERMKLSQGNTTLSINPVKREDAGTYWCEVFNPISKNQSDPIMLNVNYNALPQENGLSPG

B1: He4/L6 (antibody, IgG4, V domains shown)
VH: EVQLLESGGGLVQPGGSLRLSCAASGFSFSDYYLYWVRQAPGKGLEWVATISVGGGQTSYADSVKGRFTISRDNSKNTLYLQMNSLRAEDTAMYYCTRALYYGPAWFAYWGQGTLVTVSS
VL: DIVMTQSPDSLAVSLGERATINCKSSQSLLNSANQKNYLAWYQQKPGQPPKLLIYFASTRESGVPDRFSGSGSGTDFTLTISSLQAEDVAVYYCQSHYPFSFTFGGGTKVEIK
notes: IgG4 S241P, kappa
B2: He4/L17 (antibody, IgG4, V domains shown)
VH: B1 VH
VL: B1 VL with F100Y, S101P, F102Y
notes: IgG4 S241P, kappa
B3: He13/L2 (antibody, IgG4, V domains shown)
VH: B1 VH with A99G, A105S, F107L
VL: B1 VL with S101P, F102Y
notes: IgG4 S241P, kappa
B4: He6/L4#2 (antibody, IgG4, V domains shown)
VH: B1 VH with T97A, L100R, Y101T
VL: B1 VL with F100Y, S101P, F102Y
notes: IgG4 S241P, kappa
B5: He6/L16 (antibody, IgG4, V domains shown)
VH: B1 VH with T97A, L100R, Y101T
VL: B1 VL with F100Y, S101P
notes: IgG4 S241P, kappa
B6: He4/L20 (antibody, IgG4, V domains shown)
VH: B1 VH
VL: B1 VL with Y98F, F100Y, S101P, F102L
notes: IgG4 S241P, kappa
B7: He4/L19 (antibody, IgG4, V domains shown)
VH: B1 VH
VL: B1 VL with Y98I, P99Y, F100P, S101N
notes: IgG4 S241P, kappa
B8: He6/L19 (antibody, IgG4, V domains shown)
VH: B1 VH with T97A, L100R, Y101T
VL: B1 VL with Y98I, P99Y, F100P, S101N
notes: IgG4 S241P, kappa
B9: He9/L4 #1 (antibody, IgG4, V domains shown)
VH: B1 VH with T97A, L100M
VL: B1 VL with Y98F, F100Y, S101Y, F102Y
notes: IgG4 S241P, kappa
B10: He6/L4 #1 (antibody, IgG4, V domains shown)
VH: B1 VH with T97A, L100R, Y101T
VL: B1 VL with Y98F, F100Y, S101Y, F102Y
notes: IgG4 S241P, kappa
B11: He6/L18 (antibody, IgG4, V domains shown)
VH: B1 VH with T97A, L100R, Y101T
VL: B1 VL with Y98F, F100Y, S101P
notes: IgG4 S241P, kappa
B12: He9/L16 (antibody, IgG4, V domains shown)
VH: B1 VH with T97A, L100M
VL: B1 VL with F100Y, S101P
notes: IgG4 S241P, kappa
B13: He9/L18 (antibody, IgG4, V domains shown)
VH: B1 VH with T97A, L100M
VL: B1 VL with Y98F, F100Y, S101P
notes: IgG4 S241P, kappa
B14: He13/L1 (antibody, IgG4, V domains shown)
VH: B1 VH with A99G, A105S, F107L
VL: B1 VL with S101Y, F102Y
notes: IgG4 S241P, kappa
B15: He6/L5 (antibody, IgG4, V domains shown)
VH: B1 VH with T97A, L100R, Y101T
VL: B1 VL with S101A
notes: IgG4 S241P, kappa
B16: He9/Parent VL (antibody, IgG4, V domains shown)
VH: B1 VH with T97A, L100M
VL: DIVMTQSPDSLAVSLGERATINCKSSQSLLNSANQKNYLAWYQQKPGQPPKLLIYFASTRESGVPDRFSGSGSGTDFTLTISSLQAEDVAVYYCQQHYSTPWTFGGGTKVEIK
notes: IgG4 S241P, kappa
B17: He6/L6 (antibody, IgG4, V domains shown)
VH: B1 VH with T97A, L100R, Y101T
VL: B1 VL
notes: IgG4 S241P, kappa
B18: He4/Parent VL (antibody, IgG4, V domains shown)
VH: B1 VH
VL: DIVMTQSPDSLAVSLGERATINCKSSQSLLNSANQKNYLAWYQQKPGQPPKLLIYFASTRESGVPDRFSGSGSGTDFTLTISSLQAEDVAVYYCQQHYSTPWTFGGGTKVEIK
notes: IgG4 S241P, kappa
B19: He4/L18 (antibody, IgG4, V domains shown)
VH: B1 VH
VL: B1 VL with Y98F, F100Y, S101P
notes: IgG4 S241P, kappa
B20: He6/Parent VL (antibody, IgG4, V domains shown)
VH: B1 VH with T97A, L100R, Y101T
VL: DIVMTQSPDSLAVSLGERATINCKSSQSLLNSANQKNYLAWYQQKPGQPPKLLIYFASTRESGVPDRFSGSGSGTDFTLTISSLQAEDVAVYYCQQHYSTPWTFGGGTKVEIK
notes: IgG4 S241P, kappa
B21: He6/L1 (antibody, IgG4, V domains shown)
VH: B1 VH with T97A, L100R, Y101T
VL: B1 VL with S101Y, F102Y
notes: IgG4 S241P, kappa
B22: He6/L17 (antibody, IgG4, V domains shown)
VH: B1 VH with T97A, L100R, Y101T
VL: B1 VL with F100Y, S101P, F102Y
notes: IgG4 S241P, kappa
B23: He9/L19 (antibody, IgG4, V domains shown)
VH: B1 VH with T97A, L100M
VL: B1 VL with Y98I, P99Y, F100P, S101N
notes: IgG4 S241P, kappa
B24: He6/L2 (antibody, IgG4, V domains shown)
VH: B1 VH with T97A, L100R, Y101T
VL: B1 VL with S101P, F102Y
notes: IgG4 S241P, kappa
B25: He6/L20 (antibody, IgG4, V domains shown)
VH: B1 VH with T97A, L100R, Y101T
VL: B1 VL with Y98F, F100Y, S101P, F102L
notes: IgG4 S241P, kappa
B26: He6/L3 (antibody, IgG4, V domains shown)
VH: B1 VH with T97A, L100R, Y101T
VL: B1 VL with Y98F, S101P
notes: IgG4 S241P, kappa
B27: He9/L2 (antibody, IgG4, V domains shown)
VH: B1 VH with T97A, L100M
VL: B1 VL with S101P, F102Y
notes: IgG4 S241P, kappa
B28: He9/L20 (antibody, IgG4, V domains shown)
VH: B1 VH with T97A, L100M
VL: B1 VL with Y98F, F100Y, S101P, F102L
notes: IgG4 S241P, kappa
B29: He9/L5 (antibody, IgG4, V domains shown)
VH: B1 VH with T97A, L100M
VL: B1 VL with S101A
notes: IgG4 S241P, kappa
B30: He9/L1 (antibody, IgG4, V domains shown)
VH: B1 VH with T97A, L100M
VL: B1 VL with S101Y, F102Y
notes: IgG4 S241P, kappa

The target of this assay is T1, CEACAM1 (Sino Biological). Kind of assay: SPR single-cycle. Here is the method: To assess the binding of the humanized affinity matured IgGs, single cycle kinetics analysis was performed on crude supernatants using a Biacore T200 running Biacore T200 Control Software V2.0.1 and Biacore T200 Evaluation Software V3.0 (Uppsala, Sweden). Antibodies were diluted in HBS-P+ (GE Healthcare) to a final concentration of […]. At the start of each cycle, antibodies were loaded onto Fc2, Fc3 and Fc4 of the Protein A chip (GE Healthcare). IgGs were captured at a flow rate of 10 μl/min to give an immobilization level (RL) of ˜100 RU (a level calculated to obtain an Rmax of ˜50-150 RU once the analyte is bound). The surface was then allowed to stabilize. Single cycle kinetics data was obtained with CEACAM1 as the analyte at a flow rate of […] to minimize any potential mass transfer effects. Multiple repeats with the parent (VH2 N56Q/Vκ4 S27(f)A) antibody were performed to check the stability of the surface and analyte over the kinetic cycles. The signal from the reference channel Fc1 (no antibody) was subtracted from that of Fc2, Fc3 and Fc4 to correct for differences in non-specific binding to the reference surface. A three point, two-fold dilution range from 25 nM to 100 nM CEACAM 1 without regeneration between each concentration was used. The signal from each antibody blank run (no CEACAM1) was subtracted to correct for differences in surface stability. The association phase for the three injections of increasing concentrations of CEACAM1 was monitored for 200 seconds each time and a single dissociation phase was measured for 300 seconds following the last injection of CEACAM1. Regeneration of the Protein A surface was conducted using two injections of 10 mM glycine-HCL pH 1.5 followed by a stabilization period of 240 seconds.
In the case of B1, the dissociation constant (Kd) stood at 72 nM and the “fold better than Parent (KD)” value came out at 2.22 fold.

With B2, the affinity, expressed as Kd, was 62 nM and the “fold better than Parent (KD)” value was 2.55 fold.

As for B3, binding was characterised by a dissociation constant (Kd) of 98 nM and the “fold better than Parent (KD)” value stood at 1.62 fold.

As to B4, the affinity, expressed as Kd, was 146 nM and the “fold better than Parent (KD)” value is 3.78 fold.

With B5, the equilibrium dissociation constant (Kd) is 66 nM and the “fold better than Parent (KD)” value stood at 2.41 fold.

Turning to B6, binding was put at a Kd of 90 nM and the “fold better than Parent (KD)” value was found to be 1.77 fold.

Turning to B7, the Kd stood at 90 nM and the “fold better than Parent (KD)” value amounted to 1.77 fold.

On to B8, for which binding was characterised by a dissociation constant (Kd) of 237 nM and the “fold better than Parent (KD)” value was 0.67 fold.

Regarding B9, the Kd was 78 nM and the “fold better than Parent (KD)” value came out at 2.05 fold.

Consider B10, for which the dissociation constant (Kd) was found to be 155 nM and the “fold better than Parent (KD)” value is 1.03 fold.

For B11, binding was characterised by a dissociation constant (Kd) of 83 nM and the “fold better than Parent (KD)” value amounted to 1.92 fold.

Consider B12, for which the Kd was found to be 32 nM and the “fold better than Parent (KD)” value was 5.05 fold.

On to B13, for which the Kd amounted to 36 nM and the “fold better than Parent (KD)” value is 4.4 fold.

For B14, the Kd amounted to 126 nM and the “fold better than Parent (KD)” value came out at 1.26 fold.

Turning to B15, the Kd came to 84 nM and the “fold better than Parent (KD)” value is 1.89 fold.

On to B16, for which binding was characterised by a dissociation constant (Kd) of 262 nM and the “fold better than Parent (KD)” value was found to be 0.61 fold.

Regarding B17, the affinity, expressed as Kd, was 89 nM and the “fold better than Parent (KD)” value was 1.78 fold.

For B18, binding was characterised by a dissociation constant (Kd) of 155 nM and the “fold better than Parent (KD)” value is 1.03 fold.

B19: the dissociation constant (Kd) came out at 55 nM and the “fold better than Parent (KD)” value was 2.89 fold.

On to B20, for which the Kd was determined as 125 nM and the “fold better than Parent (KD)” value was found to be 1.27 fold.

For B21, the dissociation constant (Kd) amounted to 98 nM and the “fold better than Parent (KD)” value was determined as 1.62 fold.

Turning to B22, the Kd stood at 91 nM and the “fold better than Parent (KD)” value is 1.75 fold.

For B23, the Kd was found to be 193 nM and the “fold better than Parent (KD)” value was determined as 0.82 fold.

Turning to B24, the Kd is 104 nM and the “fold better than Parent (KD)” value was 1.53 fold.

Turning to B25, binding was put at a Kd of 89 nM and the “fold better than Parent (KD)” value stood at 1.79 fold.

Turning to B26, binding was put at a Kd of 94 nM and the “fold better than Parent (KD)” value worked out at 1.69 fold.

For B27, the dissociation constant Kd was 70 nM and the “fold better than Parent (KD)” value was 2.27 fold.

On to B28, for which the dissociation constant Kd is 44 nM and the “fold better than Parent (KD)” value turned out to be 3.61 fold.

In the case of B29, the Kd was determined as 44 nM and the “fold better than Parent (KD)” value is 3.61 fold.

For B30, the Kd stood at 69 nM and the “fold better than Parent (KD)” value was found to be 2.32 fold.

Values taken from patent US20250388666A1 (BRIGHAM AND WOMEN S HOSPITAL, published 2025).
